In US20230279141A1 (MINERVA BIOTECHNOLOGIES, published 2023):
No end group written: not given here.

T1: recombinant human NME7-AB (human, UniProt Q9Y5B8 92-376)
T1 construct: Monomer with A and B domains; also called NME-AB
T1 sequence: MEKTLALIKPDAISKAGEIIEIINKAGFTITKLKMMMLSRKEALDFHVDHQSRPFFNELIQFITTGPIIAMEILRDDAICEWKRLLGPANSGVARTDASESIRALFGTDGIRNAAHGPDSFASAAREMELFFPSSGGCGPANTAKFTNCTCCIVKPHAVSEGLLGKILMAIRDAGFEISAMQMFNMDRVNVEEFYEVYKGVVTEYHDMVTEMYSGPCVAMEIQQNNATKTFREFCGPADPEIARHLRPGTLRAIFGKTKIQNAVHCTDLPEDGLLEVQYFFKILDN

B1: PSMGFR peptide (MUC1* extra cellular domain peptide) (peptide)
peptide: GTINVHDVETQFNQYKTEAASRYNLTISDVSVSDVPFPFSAQSGA
modifications: also: also used with C-terminal Cys coupled to BSA, or His-tagged or biotinylated
notes: also called MUC1* peptide; FLR
B2: anti-NME7AB monoclonal antibody 8F9A5A1 (antibody, V domains shown)
VH: IQLVQSGPELKKPGETVKISCKASGYTFTNYGMNWVKQAPGKGLKWMGWINTYTGEPTYVDDFKGRFAFSLETSATTAYLQINNLKNEDTSTYFCARLRGIRPGPLAYWGQGTLVTVSA
VL: EILLTQSPAIIAASPGEKVTITCSASSSVSYMNWYQQKPGSSPKIWIYGISNLASGVPARFSGSGSGTSFSFTINSMEAEDVATYYCQQRSSYPPTFGGGTKLEIKR
notes: Mouse monoclonal
B3: anti-NME7AB monoclonal antibody 5F3A5D4 (antibody, V domains shown)
VH: VQLQQSGPDLVKPGTSVKISCKTSGNTFTEYTMHWVKQSHGKSLEWIGGFNPNNGVTNYNQKFKGKATLTVDKSSSTAYMELRSLTSEDSAVYYCARRYYHSTYVFYFDSWGQGTTLTVSS
VL: DIQMTQTTSSLSASLGDRVTISCSASQGISNYLNWFQQKPDGTIKLLIYYTSSLHSGVPSRFSGSGSGTDYSLTISNVEPEDIATYYCQQYSKLPYTFGGGTKLEIKR
notes: Mouse monoclonal

Key:
[1] = target: T1, recombinant human NME7-AB; experiment: sandwich ELISA, PSMGFR-Cys-BSA on the plate, second tagged PSMGFR in solution (FIG. 1)
Description: The PSMGFR peptide bearing a C-terminal Cysteine (PSMGFR-Cys) was covalently coupled to BSA using Imject Maleimide activated BSA kit (Thermo Fisher). PSMGFR-Cys coupled BSA was diluted to 10 ug/mL in 0.1M carbonate/bicarbonate buffer pH 9.6 and 50 uL was added to each well of a 96 well plate. After overnight incubation at 4° C., the plate was washed twice with PBS-T and a 3% BSA solution was added to block remaining binding site on the well. After 1 h at RT the plate was washed twice with PBS-T and NME7, diluted in PBS-T+1% BSA, was added at different concentrations. After 1 h at RT the plate was washed 3× with PBS-T and anti-NM23-H7 (B-9, Santa Cruz Biotechnology), diluted in PBS-T+1% BSA, was added at 1/500 dilution. […] After 1 h at RT the plate was washed 3× with PBS-T and binding of NME7 was measured at 415 nm using ABTS solution (Pierce). […]
After 1 h at RT the plate was washed 3× with PBS-T and His-Tagged PSMGFR peptide (PSMGFR-His) or biotinylated PSMGFR peptide (PSMGFR-biotin), diluted in PBS-T+1% BSA, was added at different concentration. […] After 1 h at RT the plate was washed 3× with PBS-T and binding of PSMGFR peptide to NME7 already bound to another PSMGFR peptide (which could not signal by anti-His antibody or by streptavidin) coupled BSA was measured at 415 nm using a ABTS solution (Pierce).

[2] = target: T1, recombinant human NME7-AB; experiment: ELISA, plate coated with recombinant NME7-AB (FIG. 24)

Binder	binding result [1]	binding result [2]
B1	binds	
B2		binds
B3		binds
